Test results taken from the supplement of paper PMC6757056.
± gives the standard deviation of the averaged measurements.

B1: library; a variant is named by its letters at N, in order (parent)
chain: GCUGUCACCGGUGUAUUACCCUAGUGGUCGACCGGUCUGAUGAGUCUNNNNNNAGACGAAACAGC

Assays:
hypoxanthine [1] = variants of: B1; test: normalized RNA/DNA level with ligand (relative to sTRSVctl = 100) (log10 (% of sTRSVctl)); ligand: hypoxanthine (xanthine aptamer); higher = less ribozyme self-cleavage, higher mRNA level; conditions: ligand concentration (+) RNA-Seq: 5 mM, HEK293T, reporter: mCherry (pCS4076), ligand present: yes
Outline: (§1)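 Ribozyme switch library plasmids with mCherry reporters (eGFP in certain ligand experiments) went into HEK293T cells at 4 µg per 6-well well. Where ligand was used, it was applied 1 h before transfection, and total RNA was extracted with EDTA 72 h later for reverse transcription, amplification, barcoding and sequencing. RNA level is the RNA-to-DNA read ratio normalized to a spiked-in non-cleaving sequence or to the leading sequences, then scaled and log-transformed. Scaling was ×100 with log10, the leading set comprised 25 sequences, and the cutoff was ≥100 DNA reads.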

hypoxanthine [2] = variants of: B1; test: normalized RNA/DNA level without ligand (relative to sTRSVctl = 100) (log10 (% of sTRSVctl)); ligand: hypoxanthine (xanthine aptamer); higher = less ribozyme self-cleavage, higher mRNA level; conditions: HEK293T, reporter: mCherry (pCS4076), ligand present: no
Outline: as §1

Row | Variant | normalized RNA/DNA level with ligand (log10) (hypoxanthine [1]) | normalized RNA/DNA level without ligand (log10) (hypoxanthine [2])
1 | GUGGAG | 1.79 ± 0.028 | 1.28 ± 0.1
2 | UUGGAG | 1.95 ± 0.041 | 1.684 ± 0.0079
3 | AUGGAU | 1.912 ± 0.0082 | 1.6566 ± 0.0015
4 | CUGGAU | 1.94 ± 0.051 | 1.75 ± 0.072
5 | UUGGAU | 2.004 ± 0.0096 | 1.8482 ± 4.2e-06
6 | AUGGCA | 1.92 ± 0.035 | 1.787 ± 0.017
7 | CUGGCA | 1.971 ± 0.0092 | 1.88 ± 0.039
8 | GUGGCA | 1.98 ± 0.02 | 1.83 ± 0.072
9 | UUGGCA | 1.966 ± 0.0098 | 1.907 ± 0.018
10 | AUGGCC | 1.959 ± 0.015 | 1.883 ± 0.014
11 | CUGGCC | 1.98 ± 0.16 | 1.91 ± 0.042
12 | GUGGCC | 1.98 ± 0.027 | 1.88 ± 0.023
13 | UUGGCC | 1.97 ± 0.066 | 2.013 ± 0.0026
14 | CUGGCG | 1.97 ± 0.029 | 1.827 ± 0.0095
15 | AUGGCU | 1.89 ± 0.026 | 1.86 ± 0.031
16 | CUGGCU | 1.96 ± 0.077 | 1.915 ± 0.0057
17 | GUGGCU | 1.96 ± 0.042 | 1.881 ± 0.0077
18 | UUGGCU | 1.98 ± 0.042 | 1.988 ± 0.013
19 | CUGGGA | 2.03 ± 0.061 | 1.857 ± 0.015
20 | UUGGGA | 2.02 ± 0.07 | 1.71 ± 0.053
21 | AUGGGC | 1.94 ± 0.064 | 1.81 ± 0.022
22 | CUGGGC | 1.98 ± 0.047 | 1.902 ± 0.0037
23 | GUGGGC | 1.81 ± 0.1 | 1.33 ± 0.11

Row | Variant | normalized RNA/DNA level with ligand (log10) (hypoxanthine [1]) | normalized RNA/DNA level without ligand (log10) (hypoxanthine [2])
24 | UUGGGC | 2.05 ± 0.032 | 1.914 ± 0.012
25 | AUGGGG | 1.88 ± 0.08 | 1.4 ± 0.081
26 | UUGGGG | 1.91 ± 0.047 | 1.82 ± 0.042
27 | AUGGGU | 1.88 ± 0.066 | 1.534 ± 0.0046
28 | CUGGGU | 2 ± 0.069 | 1.881 ± 0.005
29 | UUGGGU | 2.014 ± 0.011 | 1.82 ± 0.053
30 | CUGGUA | 1.93 ± 0.022 | 1.773 ± 0.01
31 | UUGGUA | 1.937 ± 0.0068 | 1.885 ± 0.0069
32 | CUGGUC | 1.96 ± 0.026 | 1.93 ± 0.023
33 | GUGGUC | 1.96 ± 0.038 | 1.79 ± 0.054
34 | UUGGUC | 1.97 ± 0.034 | 2.006 ± 0.0099
35 | CUGGUG | 1.94 ± 0.059 | 1.76 ± 0.022
36 | UUGGUG | 2.008 ± 0.0026 | 1.81 ± 0.054
37 | AUGGUU | 1.89 ± 0.034 | 1.763 ± 0.012
38 | CUGGUU | 2.01 ± 0.024 | 1.858 ± 0.0054
39 | GUGGUU | 1.96 ± 0.064 | 1.875 ± 0.017
40 | UUGGUU | 1.99 ± 0.037 | 1.91 ± 0.025
41 | CUGUAA | 1.917 ± 0.017 | 1.713 ± 0.006
42 | UUGUAA | 1.976 ± 0.014 | 1.9 ± 0.042
43 | CUGUAC | 1.93 ± 0.033 | 1.75 ± 0.093
44 | GUGUAC | 1.92 ± 0.045 | 1.69 ± 0.11
45 | UUGUAC | 2 ± 0.025 | 1.973 ± 0.0097
46 | CUGUAG | 1.88 ± 0.024 | 1.65 ± 0.032

Row | Variant | normalized RNA/DNA level with ligand (log10) (hypoxanthine [1]) | normalized RNA/DNA level without ligand (log10) (hypoxanthine [2])
47 | UUGUAG | 1.99 ± 0.025 | 1.84 ± 0.025
48 | AUGUCA | 1.95 ± 0.08 | 1.741 ± 0.0086
49 | GUGUCA | 1.94 ± 0.052 | 1.77 ± 0.043
50 | UUGUCA | 1.99 ± 0.037 | 1.946 ± 0.01
51 | AUGUCC | 1.98 ± 0.11 | 1.884 ± 0.011
52 | CUGUCC | 2.01 ± 0.024 | 1.92 ± 0.053
53 | GUGUCC | 1.97 ± 0.036 | 1.776 ± 0.0043
54 | UUGUCC | 1.99 ± 0.03 | 2.03 ± 0.067
55 | AUGUCG | 1.863 ± 0.018 | 1.52 ± 0.036
56 | CUGUCG | 1.98 ± 0.027 | 1.84 ± 0.032
57 | UUGUCG | 1.99 ± 0.025 | 1.947 ± 0.0075
58 | CUGUCU | 2.03 ± 0.079 | 1.89 ± 0.077
59 | GUGUCU | 1.95 ± 0.04 | 1.85 ± 0.019
60 | UUGUCU | 1.99 ± 0.03 | 2.02 ± 0.083
61 | CUGUGA | 1.976 ± 0.0082 | 1.82 ± 0.065
62 | UUGUGA | 1.985 ± 0.003 | 1.8 ± 0.062
63 | AUGUGC | 1.853 ± 0.018 | 1.667 ± 0.0026
64 | CUGUGC | 1.907 ± 0.018 | 1.86 ± 0.043
65 | UUGUGC | 2.02 ± 0.024 | 1.99 ± 0.047
66 | CUGUGU | 1.95 ± 0.047 | 1.898 ± 0.0077
67 | UUGUGU | 1.97 ± 0.051 | 1.93 ± 0.043
68 | AUGUUA | 1.92 ± 0.026 | 1.761 ± 0.011
69 | GUGUUA | 1.912 ± 0.017 | 1.79 ± 0.047

Row | Variant | normalized RNA/DNA level with ligand (log10) (hypoxanthine [1]) | normalized RNA/DNA level without ligand (log10) (hypoxanthine [2])
70 | UUGUUA | 1.983 ± 0.0091 | 2.01 ± 0.043
71 | AUGUUC | 1.94 ± 0.14 | 1.85 ± 0.034
72 | CUGUUC | 1.97 ± 0.021 | 1.861 ± 0.0058
73 | GUGUUC | 1.909 ± 0.0089 | 1.84 ± 0.044
74 | UUGUUC | 2.012 ± 0.012 | 2.01 ± 0.032
75 | CUGUUG | 1.964 ± 0.0068 | 1.8708 ± 0.00036
76 | UUGUUG | 2.027 ± 0.012 | 1.9556 ± 0.0016
77 | CUGUUU | 2.02 ± 0.046 | 1.956 ± 0.006
78 | GUGUUU | 1.92 ± 0.041 | 1.87 ± 0.046
79 | UUGUUU | 2.039 ± 0.018 | 2.04 ± 0.042
80 | CUUAAA | 1.899 ± 0.0031 | 1.8 ± 0.036
81 | GUUAAA | 1.933 ± 0.0032 | 1.798 ± 0.0025
82 | UUUAAA | 1.94 ± 0.034 | 1.76 ± 0.036
83 | AUUAAC | 1.881 ± 0.0094 | 1.8077 ± 0.0004
84 | CUUAAG | 1.93 ± 0.081 | 1.69 ± 0.018
85 | GUUAAG | 1.853 ± 0.0019 | 1.48 ± 0.027
86 | UUUAAG | 1.915 ± 0.016 | 1.71 ± 0.043
87 | CUUAAU | 1.9 ± 0.0027 | 1.76 ± 0.028
88 | CUUACA | 1.932 ± 0.011 | 1.83 ± 0.062
89 | GUUACA | 1.92 ± 0.031 | 1.8382 ± 0.0018
90 | UUUACA | 1.97 ± 0.04 | 1.912 ± 0.011
91 | AUUACC | 1.926 ± 0.013 | 1.94 ± 0.038
92 | UUUACC | 1.957 ± 0.011 | 1.867 ± 0.014

Row | Variant | normalized RNA/DNA level with ligand (log10) (hypoxanthine [1]) | normalized RNA/DNA level without ligand (log10) (hypoxanthine [2])
93 | CUUACG | 1.96 ± 0.025 | 1.87 ± 0.086
94 | UUUACG | 1.92 ± 0.035 | 1.76 ± 0.048
95 | AUUACU | 1.956 ± 0.0042 | 1.819 ± 0.017
96 | CUUACU | 1.96 ± 0.028 | 1.856 ± 0.0075
97 | UUUACU | 1.94 ± 0.024 | 1.876 ± 0.0032
98 | CUUAGA | 1.984 ± 0.0081 | 1.852 ± 0.0069
99 | UUUAGA | 1.93 ± 0.054 | 1.75 ± 0.035
100 | CUUAGC | 1.944 ± 0.011 | 1.87 ± 0.018
101 | GUUAGC | 1.91 ± 0.023 | 1.683 ± 0.0085
102 | CUUAGG | 1.94 ± 0.075 | 1.84 ± 0.053
103 | AUUAGU | 1.95 ± 0.028 | 1.712 ± 0.0075
104 | CUUAGU | 1.936 ± 0.016 | 1.906 ± 0.0051
105 | GUUAGU | 1.9 ± 0.1 | 1.786 ± 0.011
106 | GUUAUA | 1.881 ± 0.0041 | 1.83 ± 0.025
107 | AUUAUC | 2.02 ± 0.021 | 1.97 ± 0.02
108 | CUUAUC | 1.98 ± 0.02 | 1.987 ± 0.013
109 | GUUAUC | 1.96 ± 0.049 | 1.86 ± 0.037
110 | UUUAUC | 1.97 ± 0.03 | 1.99 ± 0.021
111 | AUUAUG | 1.891 ± 0.0046 | 1.48 ± 0.043
112 | CUUAUG | 1.91 ± 0.039 | 1.91 ± 0.018
113 | UUUAUG | 1.92 ± 0.027 | 1.772 ± 0.014
114 | CUUAUU | 1.95 ± 0.047 | 1.872 ± 0.005
115 | GUUAUU | 1.971 ± 0.0054 | 1.916 ± 0.0092
